Target: T1, FLAG-LKB1 (UniProt Q15831 1-433)
T1 construct: Liver kinase B1 (LKB1); also called liver kinase B1; source: HEK293A (WT or MAP4K3 k.o.), transfected, in lysate
T1 sequence (looked up): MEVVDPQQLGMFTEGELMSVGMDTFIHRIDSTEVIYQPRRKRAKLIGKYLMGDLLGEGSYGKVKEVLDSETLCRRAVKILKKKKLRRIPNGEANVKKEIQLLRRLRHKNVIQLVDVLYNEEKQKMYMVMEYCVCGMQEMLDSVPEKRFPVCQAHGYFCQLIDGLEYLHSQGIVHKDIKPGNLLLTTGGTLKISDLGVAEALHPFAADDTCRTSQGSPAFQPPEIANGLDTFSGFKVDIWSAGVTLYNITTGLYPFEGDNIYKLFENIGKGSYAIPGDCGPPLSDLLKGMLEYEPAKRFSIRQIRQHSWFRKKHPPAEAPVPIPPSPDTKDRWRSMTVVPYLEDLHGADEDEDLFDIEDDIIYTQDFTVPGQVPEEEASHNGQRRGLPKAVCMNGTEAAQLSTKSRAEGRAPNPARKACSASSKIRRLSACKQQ
Experiment: co-IP; anti-FLAG IP from lysates of co-transfected HEK293A cells (WT or MAP4K3 k.o.), blot with anti-HA and anti-FLAG; lysis buffer 25 mM HEPES-KOH pH 7.4, 150 mM NaCl, 5 mM EDTA, 1% Triton X-100; 2 h at 4°C
Details: partners not purified

B1: SIRT1-HA-T344D (enzyme, UniProt Q96EB6 1-747, looked up)
chain: MADEAALALQPGGSPSAAGADREAASSPAGEPLRKRPRRDGPGLERSPGEPGGAAPEREVPAAARGCPGAAAAALWREAEAEAAAAGGEQEAQATAAAGEGDNGPGLQGPSREPPLADNLYDEDDDDEGEEEEEAAAAAIGYRDNLLFGDEIITNGFHSCESDEEDRASHASSSDWTPRPRIGPYTFVQQHLMIGTDPRTILKDLLPETIPPPELDDMTLWQIVINILSEPPKRKKRKDINTIEDAVKLLQECKKIIVLTGAGVSVSCGIPDFRSRDGIYARLAVDFPDLPDPQAMFDIEYFRKDPRPFFKFAKEIYPGQFQPSLCHKFIALSDKEGKLLRNYDQNIDTLEQVAGIQRIIQCHGSFATASCLICKYKVDCEAVRGDIFNQVVPRCPRCPADEPLAIMKPEIVFFGENLPEQFHRAMKYDKDEVDLLIVIGSSLKVRPVALIPSSIPHEVPQILINREPLPHLHFDVELLGDCDVIINELCHRLGGEYAKLCCNPVKLSEITEKPPRTQKELAYLSELPPTPLHVSEDSSSPERTSPPDSSVIVTLLDQAAKSNDDLDVSESKGCMEEKPQEVQTSRNVESIAEQMENPDLKNVGSSTGEKNERTSVAGTVRKCWPNRVAKEQISRRLDGNQYLFLPPNRYIFHGAEVYSDSEDDVLSSSSCGSNSDSGTCQSPSLEEPMEDESEIEEFYNGLEDEPDVPERAGGAGFGTDGDDQEAINEAISVKQEVTDMNYPSNKS
notes: Derived from the SIRT1-HA construct; also called SIRT1-T344D; SIRT1-T344D-HA; source: MAP4K3 k.o; HEK293A (M4 line), transfected, in lysate
- fold change of the co-precipitate against WT SIRT1 with LKB1 (in MAP4K3 k.o. cells): ~2 fold
